Experiments:
Assay in all cases: SPR
mouse CD64 = molecular target: mouse CD64
mouse CD16-2 = molecular target: mouse CD16-2
[1] = molecular target: mouse neonatal Fc receptor (FcRn) (mouse) (UniProt Q61559)
[2] = molecular target: human CD64 (FcgRI) (human) (UniProt P12314)
human FcRn = molecular target: human FcRn

human IgG3 (antibody specific for the receptor binding domain of SARS-CoV-2, clone not named), sequence (P01860 whole entry, looked up, the tested form may be a part): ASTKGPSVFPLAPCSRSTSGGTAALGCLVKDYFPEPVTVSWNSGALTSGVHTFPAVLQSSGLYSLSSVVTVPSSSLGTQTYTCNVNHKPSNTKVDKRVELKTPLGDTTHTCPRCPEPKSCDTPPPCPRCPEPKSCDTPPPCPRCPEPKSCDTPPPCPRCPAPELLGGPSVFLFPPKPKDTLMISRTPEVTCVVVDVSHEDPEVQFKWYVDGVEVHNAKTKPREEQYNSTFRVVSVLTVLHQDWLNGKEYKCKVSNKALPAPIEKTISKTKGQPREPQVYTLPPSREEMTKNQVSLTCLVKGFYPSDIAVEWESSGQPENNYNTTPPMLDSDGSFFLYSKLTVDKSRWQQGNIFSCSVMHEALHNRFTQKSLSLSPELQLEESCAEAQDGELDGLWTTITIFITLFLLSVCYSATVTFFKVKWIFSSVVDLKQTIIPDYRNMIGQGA
human CD64 (FcgRI) (human), sequence (P12314 16-374): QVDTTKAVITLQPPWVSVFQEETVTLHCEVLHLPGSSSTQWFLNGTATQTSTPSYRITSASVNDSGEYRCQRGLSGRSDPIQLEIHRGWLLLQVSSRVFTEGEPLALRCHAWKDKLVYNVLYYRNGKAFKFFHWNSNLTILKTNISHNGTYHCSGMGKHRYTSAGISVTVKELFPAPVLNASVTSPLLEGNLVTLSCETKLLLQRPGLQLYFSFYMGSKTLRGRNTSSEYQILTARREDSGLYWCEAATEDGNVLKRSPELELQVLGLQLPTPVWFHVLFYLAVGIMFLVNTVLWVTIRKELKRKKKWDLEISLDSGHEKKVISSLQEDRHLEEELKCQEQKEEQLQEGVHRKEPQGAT
mouse neonatal Fc receptor (FcRn) (mouse), sequence (Q61559 22-297): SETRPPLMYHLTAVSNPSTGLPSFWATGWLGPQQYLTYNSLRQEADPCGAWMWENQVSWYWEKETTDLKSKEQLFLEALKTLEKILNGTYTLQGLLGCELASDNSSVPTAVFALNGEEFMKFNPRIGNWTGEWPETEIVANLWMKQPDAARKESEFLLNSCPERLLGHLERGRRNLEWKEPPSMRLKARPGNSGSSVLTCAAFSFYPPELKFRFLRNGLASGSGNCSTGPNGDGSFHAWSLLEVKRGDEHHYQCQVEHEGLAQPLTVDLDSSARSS

Substance | Kd (mouse CD64) [µM] | koff (mouse CD64) [s⁻¹] | Kd (mouse CD16-2) [µM] | koff (mouse CD16-2) [s⁻¹] | Kd [1] [µM] | koff [1] [s⁻¹] | Kd [2] [µM] | koff [2] [s⁻¹] | Kd (human FcRn) [µM] | koff (human FcRn) [s⁻¹]
human IgG1 (antibody specific for the receptor binding domain of SARS-CoV-2, clone not named) (from UniProt P01857) | 0.246 | 0.062 | 0.415 | 0.0275 | 0.0099 | 0.001 | 0.0024 | 0.00014 | 0.3 | 0.088
human IgG3 (antibody specific for the receptor binding domain of SARS-CoV-2, clone not named) (from UniProt P01860) | 0.014 | 0.0014 |  |  |  |  | 0.0081 | 0.00033 |  | 

Source: article PMC11055898
